Reference: patent publication US20060177816A1, “Cellular RhoGTPase activation assay” (Abbott GmbH & Co. KG., priority 2005, published 2006)
alkaline phosphatase tag = alkaline phosphatase tag, N-terminal fusion

Tests used:
[1] = system: HEK293-RhoA/NgR/p75 cells; test: ACR (actin cytoskeletal rearrangement) assay with image analysis; format: cell-based, human
Method: 1×10^4 cells were transferred into microtiter plates with 96 wells two days before the stimulation. The cells were stimulated with a suitable reagent (e.g. LPA or AP-Nogo-66) in culture medium (RPMI-Glutamax) comprising 5% FCS. After a stimulation period of 5 to 10 minutes, the activation was stopped with cold PBS. The cells were fixed with 3-4% strength paraformaldehyde solution, permeabilized with PBS comprising 0.2% Triton X-100, and incubated with phalloidin Alexa 568 or 488 for 30-45 minutes. Incubation with DAPI additionally took place for 5 minutes for nuclear staining. The cells were visualized with the aid of an epifluorescence microscope (Axiovert 25). Fluorescence micrograms were recorded using a cooled Zeiss CCD camera.
HEK293-Rho/NgR/p75 cells were transferred into microtiter plates with 96 wells (Biocoat Poly D-Lysine Black Clear Plates from Becton Dickinson, Heidelberg, order number 356640). After a starvation period (cf. above) of 2 hours, the cells were preincubated with PI-PLC (1 U/ml) for 30 minutes or not treated. The cells were subsequently stimulated with LPA or AP-Nogo-66 or remained unstimulated. Fluorescence micrograms were obtained as described above. Representative appearances are depicted in FIG. 5b.
Fluorescence micrograms (FIG. 6a) obtained from an ACR assay carried out according to the invention (stimulation of HEK293-RhoA/NgR/p75 cells with 10 μg/ml AP-Nogo-66) were investigated with various high content screening systems, e.g. with the Atto Pathway HT image analysis system from BD Bioimages (Becton Dickinson) or the Discovery 1 from Molecular Devices, for changes in the cell morphology. […] The Pathway HT was used to determine the number of so-called cytoplasmic vertices (cytoplasmic vertices are a measure of changes in the cytoskeleton which describes inter alia the contraction of actin filaments and the formation of stress fibers). The result of this evaluation is depicted in FIG. 6c.
To analyze the reported morphological changes, 1×10^4 cells per well were seeded into 96-well plates, fixed, the actin filaments were stained with FITC-labelled Alexa Phalloidin and the nuclei were visualized with DAPI. The plates were subjected to our high-content screening (HCS) system, the Pathway HT (Becton Dickinson) and the corresponding image analysis software Attovision. Analyzing the perimeter of the actin cytoskeleton achieved the most significant difference when comparing stimulated with unstimulated samples. The perimeter of the actin cytoskeleton is calculated as “cytoplasmic verticies”, which is a measure for the number of turns or changes in direction that lines outlining the cell follow.

Rho = test: RBD assay (pulldown of GTP-bound Rho with GST-RBD beads, immunoblot); format: cell-based, human
Method: The HEK cells either remained unstimulated or were stimulated (e.g. with LPA or AP-Nogo-66) for a period of from 5 to 10 minutes after a 2-hour starvation period (by incubation with serum-free RPMI-Glutamax). HEK cells (1×10^6 per well) were cultured in 6-well plates (volume of mixture 1000 μl/well). Before the stimulation, a particular volume appropriate for the concentration of the AP-Nogo66 batch employed (e.g. 100 μl of medium was removed from each well and the volume was correspondingly made up again to 1000 μl with AP-Nogo66, to result in a defined final concentration of AP-Nogo66 on the cells. Following the stimulation, the AP-Nogo66 medium solution was completely removed by aspiration. The cells were then washed with ice-cold PBS (phosphate-buffered saline) and lyzed in 50 mM Tris, pH 7.5 (comprising NaCl (500 mM), EDTA (1 mM), MgCl2 […], 10% glycerol, NaF (5 mM), DTT (1 mM), 1% Nonidet P-40 in combination with the protease inhibitors PMSF (1 mM), leupeptin (1 μg/ml) and aprotinin (1 μg/ml)).
Cell lysates (e.g. from HEK293-RhoA and HEK293-RhoA/NgR/p75; 400 μg of total protein in each case) were incubated with 40 μg of the GST-RBD beads (comprising recombinant fusion protein composed of glutathione S-transferase and RBD with amino acids 7 to 89 of human rhotekin) at 4° C. for 1 hour. After the beads had been washed 3 times with lysis buffer, the bound protein (GTP-bound, biochemically active Rho) was analyzed by SDS-PAGE and immunoblotting. The immunoblotting was carried out with anti-Rho antibody and the visualization took place by incubation with a horseradish peroxidase-conjugated secondary antibody and chemiluminescence enhancer (ECL).
It was investigated, using the RBD assay described above, whether Rho is activated after stimulation of NgR with myelin proteins, such as Nogo-66, in HEK293-Rho cells which express NgR and p75 (HEK293-Rho/NgR/p75). The results are depicted in appended FIG. 5a.

[2] = biological target: human Nogo receptor (hNgR) (human) (UniProt Q9BZR6); test: cell-based or functional assay
NgR = biological target: T1, NgR (Homo sapiens, UniProt Q9BZR6); test: Preliminary experiments on functional activity of tagged Nogo66 ligands; conditions: not shown
T1 sequence (Q9BZR6 27-447): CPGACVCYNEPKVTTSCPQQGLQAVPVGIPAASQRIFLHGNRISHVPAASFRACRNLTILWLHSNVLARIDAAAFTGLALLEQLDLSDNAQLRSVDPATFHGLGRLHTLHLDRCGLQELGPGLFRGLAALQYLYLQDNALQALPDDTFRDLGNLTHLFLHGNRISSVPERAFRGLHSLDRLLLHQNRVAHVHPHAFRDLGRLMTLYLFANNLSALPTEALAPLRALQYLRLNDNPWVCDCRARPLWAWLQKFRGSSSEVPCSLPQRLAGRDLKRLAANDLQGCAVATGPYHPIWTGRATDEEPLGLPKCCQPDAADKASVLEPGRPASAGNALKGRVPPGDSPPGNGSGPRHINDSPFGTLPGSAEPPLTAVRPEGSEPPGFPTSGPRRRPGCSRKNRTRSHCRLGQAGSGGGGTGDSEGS

[3] = HEK293-RhoA/NgR/p75 cells, stimulated for 5 minutes

C[C@@H](N)[C@H]1CC[C@H](C(=O)Nc2ccncc2)CC1 [Y-27632, reference compound]
inhibition of AP-Nogo66 induced Rho-dependent cell rounding and shrinkage ([1]; 15 min pre-treatment before stimulation with 20 nM AP-Nogo66): abolished AP-Nogo66 induced Rho-dependent cell rounding and shrinkage in a dose-dependent manner | IC50 for the inhibitory effect on the actin cytoskeletal rearrangement ([1]; 15 min pre-treatment before stimulation with 20 nM AP-Nogo66, no number given): ranges in the order of magnitude of what had described for this broadly used compound

L-alpha-lysophosphatidic acid [LPA, reference compound]
Rho activation (Rho; [3]): rapid activation of Rho | Rho activation (Rho; HEK wild-type cells, LPA stimulation (data not shown)): rapid activation of Rho

AP-Nogo66 (Nogo-66, comprising an N-terminal alkaline phosphatase Tag) (from UniProt Q9NQC3 1055-1120) (ligand)
maximal reduction of the average perimeter (cytoplasmic vertices) against untreated control cells, at 20 nM AP-Nogo66 [2]: 80 to 90%

B1: AP-Nogo66: Nogo-66, comprising an N-terminal alkaline phosphatase Tag; NgR receptor ligand (protein)
chain: {alkaline phosphatase tag}-RIYKGVIQAIQKSDEGHPFRAYLESEVAISEELVQKYSNSALGHVNCTIKELRRLFLVDDLVDSLK
modifications: not fully specified
notes: Nogo-66, comprising an N-terminal alkaline phosphatase Tag; NgR receptor ligand
Rho activation after release of NgR from the cell membrane (Rho; HEK293-RhoA/NgR/p75 cells treated with 1 U/ml PI-PLC 30 minutes before stimulation): no Rho activation | Rho activation (Rho; [3]): induced Rho activity | time to maximum of morphological changes ([1]; 20 nM AP-Nogo66): 15 min | maximal reduction of the average perimeter (cytoplasmic verticies) in comparison to untreated control cells ([1]; 20 nM AP-Nogo66, 10 min stimulation, Attovision analysis): 80-90% | time to morphological changes ([1]; 20 nM AP-Nogo66, onset of actin cytoskeletal rearrangement): ≤ 5 min | morphological change of the cells after stimulation ([1]; 10 μg/ml AP-Nogo-66, mean cell length and cytoplasmic vertices): significant, optically analyzable morphological change | morphological changes after PI-PLC treatment and stimulation ([1]; PI-PLC (1 U/ml) preincubation for 30 minutes): not observable | functional activity (NgR): functionally active

B2: GST-Nogo66: otherwise tagged Nogo66 (GST tag) (protein)
chain: RIYKGVIQAIQKSDEGHPFRAYLESEVAISEELVQKYSNSALGHVNCTIKELRRLFLVDDLVDSLK
modifications: not fully specified (N-terminus); also: GST tag, end not given here (dimerising)
functional activity (NgR): not
